Data on 91 sequences can be found in the supplement of paper PMC9112550, “Optimization of the antimicrobial peptide Bac7 by deep mutational scanning” (BMC Biology, 2022).
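Further: peptides expressed intracellularly from a pBAD plasmid library in pooled LB shake-flask culture, induced with 0.3% L-arabinose, DNA abundance read by NGS, three biological replicates, DESeq2 with apeglm shrinkage.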

This data set concerns Escherichia coli TOP10. The data set can be described thus: shrunken log2 fold change of peptide-encoding DNA abundance (4.5 h post-induction vs induction); higher = less antimicrobial activity (less host growth inhibition). Conditions: time post-induction: 4.5 h; library: site-saturation at positions 5, 18, 19, 20.
For RRIRQRPPRLPRPRPRPKQDPRP, the “shrunken log2 fold change” value was determined as 0.0446.

With RRIRRRPPRLPRPRPRPGAMPRP, the “shrunken log2 fold change” value turned out to be 0.337.

With RRIRMRPPRLPRPRPRPIYYPRP, the “shrunken log2 fold change” value is -0.51.

Consider RRIRRRPPRLPRPRPRPRVRPRP, for which the “shrunken log2 fold change” value turned out to be 0.649.

With RRIRWRPPRLPRPRPRPKDIPRP, the “shrunken log2 fold change” value was -0.0886.

Consider RRIRDRPPRLPRPRPRPVAEPRP, for which the “shrunken log2 fold change” value was 1.16.

For RRIRPRPPRLPRPRPRPFEKPRP, the “shrunken log2 fold change” value worked out at 0.0465.

With RRIRCRPPRLPRPRPRPRRHPRP, the “shrunken log2 fold change” value was -0.0331.

Take RRIRVRPPRLPRPRPRPINAPRP: the “shrunken log2 fold change” value was -0.174.

In the case of RRIRTRPPRLPRPRPRPWPFPRP, the “shrunken log2 fold change” value was -0.0102.

RRIRGRPPRLPRPRPRPRSVPRP: the “shrunken log2 fold change” value stood at 0.662.

RRIRQRPPRLPRPRPRPIVFPRP: the “shrunken log2 fold change” value amounted to 0.161.

Consider RRIRDRPPRLPRPRPRPNAGPRP, for which the “shrunken log2 fold change” value came to 0.149.

For RRIRVRPPRLPRPRPRPWSTPRP, the “shrunken log2 fold change” value amounted to 0.00921.

RRIRIRPPRLPRPRPRPRHIPRP: the “shrunken log2 fold change” value is -0.19.

Consider RRIRHRPPRLPRPRPRPPVIPRP, for which the “shrunken log2 fold change” value was -0.251.

Consider RRIRERPPRLPRPRPRPQTAPRP, for which the “shrunken log2 fold change” value was -0.0922.

Turning to RRIRVRPPRLPRPRPRPKYDPRP, the “shrunken log2 fold change” value is -0.269.

As to RRIRARPPRLPRPRPRPLHWPRP, the “shrunken log2 fold change” value amounted to 0.387.

Regarding RRIRRRPPRLPRPRPRPNTPPRP, the “shrunken log2 fold change” value was found to be 0.0411.

Consider RRIRFRPPRLPRPRPRPDRYPRP, for which the “shrunken log2 fold change” value is -0.0446.

Turning to RRIRCRPPRLPRPRPRPRGVPRP, the “shrunken log2 fold change” value stood at 0.69.

For RRIRLRPPRLPRPRPRPDDSPRP, the “shrunken log2 fold change” value was 0.0276.

In the case of RRIRVRPPRLPRPRPRPCQGPRP, the “shrunken log2 fold change” value is -0.226.

Regarding RRIRGRPPRLPRPRPRPIACPRP, the “shrunken log2 fold change” value was 0.526.

As to RRIRNRPPRLPRPRPRPYVRPRP, the “shrunken log2 fold change” value is -0.451.

Turning to RRIRERPPRLPRPRPRPQMDPRP, the “shrunken log2 fold change” value came out at 0.178.

Turning to RRIRDRPPRLPRPRPRPCYYPRP, the “shrunken log2 fold change” value was -0.0165.

As to RRIRCRPPRLPRPRPRPRQEPRP, the “shrunken log2 fold change” value came out at 0.121.

Regarding RRIRDRPPRLPRPRPRPKPDPRP, the “shrunken log2 fold change” value was 0.306.

Regarding RRIRTRPPRLPRPRPRPCCPPRP, the “shrunken log2 fold change” value was -0.305.

For RRIRLRPPRLPRPRPRPAPIPRP, the “shrunken log2 fold change” value is 0.0892.

As for RRIRARPPRLPRPRPRPTHVPRP, the “shrunken log2 fold change” value is 0.813.

On to RRIRGRPPRLPRPRPRPNYGPRP, for which the “shrunken log2 fold change” value stood at 0.07.

With RRIRMRPPRLPRPRPRPEITPRP, the “shrunken log2 fold change” value amounted to 3.07.

Turning to RRIRFRPPRLPRPRPRPWRDPRP, the “shrunken log2 fold change” value was -0.136.

On to RRIRPRPPRLPRPRPRPQNFPRP, for which the “shrunken log2 fold change” value was -0.0849.

On to RRIRWRPPRLPRPRPRPTQIPRP, for which the “shrunken log2 fold change” value was found to be 0.132.

Take RRIRRRPPRLPRPRPRPLIKPRP: the “shrunken log2 fold change” value was -0.0254.

With RRIRQRPPRLPRPRPRPITVPRP, the “shrunken log2 fold change” value was -0.143.

With RRIRRRPPRLPRPRPRPDNKPRP, the “shrunken log2 fold change” value was -0.233.

Turning to RRIRVRPPRLPRPRPRPVIQPRP, the “shrunken log2 fold change” value is -0.336.

For RRIRCRPPRLPRPRPRPKMAPRP, the “shrunken log2 fold change” value amounted to 0.0796.

RRIRDRPPRLPRPRPRPLSAPRP: the “shrunken log2 fold change” value was 0.379.

Regarding RRIRDRPPRLPRPRPRPMPKPRP, the “shrunken log2 fold change” value is -0.0503.

For the sequence RRIRIRPPRLPRPRPRPNQNPRP, the “shrunken log2 fold change” value is -0.391.

As for RRIRHRPPRLPRPRPRPVIDPRP, the “shrunken log2 fold change” value was -0.395.

Turning to RRIRHRPPRLPRPRPRPIRDPRP, the “shrunken log2 fold change” value came out at 0.0386.

With RRIRNRPPRLPRPRPRPRGHPRP, the “shrunken log2 fold change” value was found to be 0.347.

As to RRIRSRPPRLPRPRPRPCWVPRP, the “shrunken log2 fold change” value is -0.272.

Take RRIRKRPPRLPRPRPRPPWNPRP: the “shrunken log2 fold change” value came out at 0.136.

In the case of RRIRCRPPRLPRPRPRPHEHPRP, the “shrunken log2 fold change” value was determined as 1.94.

In the case of RRIRMRPPRLPRPRPRPSPKPRP, the “shrunken log2 fold change” value is 0.593.

For the sequence RRIRVRPPRLPRPRPRPQRSPRP, the “shrunken log2 fold change” value is -0.431.

Consider RRIRSRPPRLPRPRPRPSFGPRP, for which the “shrunken log2 fold change” value amounted to 0.176.

In the case of RRIRPRPPRLPRPRPRPRPSPRP, the “shrunken log2 fold change” value stood at 0.333.

As to RRIRLRPPRLPRPRPRPMNLPRP, the “shrunken log2 fold change” value was -0.31.

As to RRIRPRPPRLPRPRPRPIIQPRP, the “shrunken log2 fold change” value was -0.402.

Regarding RRIRHRPPRLPRPRPRPTPDPRP, the “shrunken log2 fold change” value turned out to be 0.134.

For RRIRKRPPRLPRPRPRPPVYPRP, the “shrunken log2 fold change” value worked out at 0.387.

In the case of RRIRWRPPRLPRPRPRPIWLPRP, the “shrunken log2 fold change” value was 0.211.

As to RRIRPRPPRLPRPRPRPPEMPRP, the “shrunken log2 fold change” value turned out to be 0.426.

In the case of RRIRGRPPRLPRPRPRPWMLPRP, the “shrunken log2 fold change” value was 0.0888.

Turning to RRIRARPPRLPRPRPRPGQQPRP, the “shrunken log2 fold change” value was found to be 0.209.

As to RRIRPRPPRLPRPRPRPYDWPRP, the “shrunken log2 fold change” value came out at 0.0551.

As to RRIRGRPPRLPRPRPRPCPTPRP, the “shrunken log2 fold change” value stood at 0.0246.

Regarding RRIRIRPPRLPRPRPRPIMWPRP, the “shrunken log2 fold change” value is -0.0162.

As for RRIRVRPPRLPRPRPRPVVLPRP, the “shrunken log2 fold change” value was determined as 0.0921.

Turning to RRIRRRPPRLPRPRPRPCKQPRP, the “shrunken log2 fold change” value was -0.0474.

RRIRYRPPRLPRPRPRPGACPRP: the “shrunken log2 fold change” value was -0.497.

Consider RRIRTRPPRLPRPRPRPAAGPRP, for which the “shrunken log2 fold change” value was 0.375.

For the sequence RRIRKRPPRLPRPRPRPVDPPRP, the “shrunken log2 fold change” value turned out to be 0.417.

Turning to RRIRHRPPRLPRPRPRPWNMPRP, the “shrunken log2 fold change” value is -0.14.

For RRIRDRPPRLPRPRPRPCHAPRP, the “shrunken log2 fold change” value is -0.0662.

Regarding RRIRARPPRLPRPRPRPFHCPRP, the “shrunken log2 fold change” value was 0.252.

Regarding RRIRDRPPRLPRPRPRPHPLPRP, the “shrunken log2 fold change” value was -0.216.

On to RRIRLRPPRLPRPRPRPQRDPRP, for which the “shrunken log2 fold change” value turned out to be 0.231.

Turning to RRIRFRPPRLPRPRPRPNNNPRP, the “shrunken log2 fold change” value was -0.714.

With RRIRMRPPRLPRPRPRPAQYPRP, the “shrunken log2 fold change” value is 0.377.

On to RRIRYRPPRLPRPRPRPAICPRP, for which the “shrunken log2 fold change” value stood at 0.0426.

In the case of RRIRPRPPRLPRPRPRPNPNPRP, the “shrunken log2 fold change” value worked out at 0.367.

With RRIRGRPPRLPRPRPRPHNHPRP, the “shrunken log2 fold change” value is -0.27.

As for RRIRCRPPRLPRPRPRPAVVPRP, the “shrunken log2 fold change” value is -0.243.

On to RRIRLRPPRLPRPRPRPQTKPRP, for which the “shrunken log2 fold change” value was -0.201.

For RRIRKRPPRLPRPRPRPEFNPRP, the “shrunken log2 fold change” value was found to be 0.15.

For the sequence RRIRDRPPRLPRPRPRPTAYPRP, the “shrunken log2 fold change” value is -0.22.

For RRIRFRPPRLPRPRPRPKCMPRP, the “shrunken log2 fold change” value is -0.967.

In the case of RRIRERPPRLPRPRPRPVEYPRP, the “shrunken log2 fold change” value was -0.0437.

With RRIRFRPPRLPRPRPRPPYQPRP, the “shrunken log2 fold change” value was -0.125.

With RRIRARPPRLPRPRPRPVAEPRP, the “shrunken log2 fold change” value turned out to be 0.871.

Take RRIRQRPPRLPRPRPRPYVEPRP: the “shrunken log2 fold change” value was -0.537.
